Source: PMC9020740

biological target: Canine parvovirus nonstructural protein 2 (NS2), made in infection (canine parvovirus (CPV) type 2); assay: proximity ligation; PLA (Duolink In Situ Orange Mouse/Rabbit) in wt CPV-infected NLFK cells, fixed 24 h after infection; anti-NS2 antibody paired with an antibody against the host protein; nuclear PLA foci counted from 3D confocal data, n = 15

Substance | PLA foci/nucleus (PLA foci/nucleus)
SSRP1 of NLFK (feline kidney) cells (natural protein) | 3.7
SMARCA5 of NLFK (feline kidney) cells (natural protein) | 6.5
macro-H2A.1 of NLFK (feline kidney) cells (natural protein) | 40
MDC1 of NLFK (feline kidney) cells (natural protein) | 22

biological target: NS2-EGFP (canine parvovirus nonstructural protein 2 fused to EGFP) (canine parvovirus (CPV) type 2); assay: proximity ligation; PLA (Duolink In Situ Orange Mouse/Rabbit) in noninfected HeLa cells transfected with NS2-EGFP, fixed 20 h after transfection; anti-GFP paired with an antibody against the host protein; nuclear PLA foci counted from 3D confocal data, n = 15

Substance | PLA foci/nucleus (PLA foci/nucleus)
structure specific recognition protein SSRP1 (FACT complex subunit) (from UniProt Q08945 1-709) (natural protein) | 7.5
core histone macro-H2A.1 (from UniProt O75367 1-369) (natural protein) | 135
nucleosome-remodeling helicase matrix-associated actin-dependent regulator of chromatin A5 (from UniProt O60264 1-1052) (natural protein) | 55
